From paper PMC4371794
Blank lines part the entries; values can stand above or below the substance they belong to.

Molecular target: R499D-quad-PDE4D5
Test: yeast two-hybrid, quantitative β-galactosidase assay
Details: parent: est. 18, read off a plot

Substance: PDE4D5 (wild-type, full-length; "long") (from UniProt Q08499-6) binder:R173A; binder:N174A; binder:N175A; target:R173A; target:N174A; target:N175A; target:E228A; target:T229A; target:L230A; target:L306A; target:M307A; target:H308A; target:K323A; target:T324A; target:E325A; target:R499D
response (bar labelled DD1 sequence AAA): 1.1 arbitrary

Substance: PDE4D5 (wild-type, full-length; "long") (from UniProt Q08499-6) binder:R173A; binder:N175A; target:R173A; target:N174A; target:N175A; target:E228A; target:T229A; target:L230A; target:L306A; target:M307A; target:H308A; target:K323A; target:T324A; target:E325A; target:R499D
response (bar labelled DD1 sequence ANA): 0.9 arbitrary

Substance: PDE4D5 (wild-type, full-length; "long") (from UniProt Q08499-6) binder:R173A; target:R173A; target:N174A; target:N175A; target:E228A; target:T229A; target:L230A; target:L306A; target:M307A; target:H308A; target:K323A; target:T324A; target:E325A; target:R499D
response (bar labelled DD1 sequence ANN): 5.4 arbitrary

More lines, now with the values ahead:

response (bar labelled DD1 sequence RAA): 7.1 arbitrary
Substance: PDE4D5 (wild-type, full-length; "long") (from UniProt Q08499-6) binder:N174A; binder:N175A; target:R173A; target:N174A; target:N175A; target:E228A; target:T229A; target:L230A; target:L306A; target:M307A; target:H308A; target:K323A; target:T324A; target:E325A; target:R499D

response (bar labelled DD1 sequence RAN): 1.9 arbitrary
Substance: PDE4D5 (wild-type, full-length; "long") (from UniProt Q08499-6) binder:N174A; target:R173A; target:N174A; target:N175A; target:E228A; target:T229A; target:L230A; target:L306A; target:M307A; target:H308A; target:K323A; target:T324A; target:E325A; target:R499D

response (bar labelled DD1 sequence RNA): 5.1 arbitrary
Substance: PDE4D5 (wild-type, full-length; "long") (from UniProt Q08499-6) binder:N175A; target:R173A; target:N174A; target:N175A; target:E228A; target:T229A; target:L230A; target:L306A; target:M307A; target:H308A; target:K323A; target:T324A; target:E325A; target:R499D
